Experimental data reported in the DeepSol protein solubility set.

Experiment: soluble on expression in E. coli; label from the status in PepcDB or PDB records

Soluble on expression in E. coli, not soluble:
MLMGMKPLRLCAILASIPPLAMVVRGRIRPKNSRKRFPTIVVLGTAQYDGVPSRQFAARLKWAAEQWHTQRSQKVVTVGGKLPEDRFTEAAVAREYLIKEHVDSDLIVAVEQGHDTRGSLRAALSELEQPILIITDPNHSLRAELIARSEGIAAWASSTPYCPTTFPRWQWWWTFVHEQGGLCVVLIELVAGKDVAQKVEDALRRLQAWLRPSRRARHEQLREERLEHHHHHH
MGSDKIHHHHHHMRNIPDQEEYFALLIEFDFEDFNDLPQNAGTSQNYVQGQLNPLLESALHQFIDFSLVAPPSAFKFRKRELLELIYYSGYTAIAKLNMNKSLSERVQTLISYHLSTELTAEFIAAQLFMSSSTLRRKLKSEGNSIQDIRNRVRLGHGLHLIQTTNNSIGNIAFECGYQSQSRFTEQFKNLFGITPRELRKTKMLT
MRFGPVALSAAKGALLAHSRKAPGWTLAKGTRLGDEDLALLAGLGVAEVVVARLDPGDVHEDEAAARVAAVLLGPGLTLGDAFTGRANLFAGGDGLLRLDAARFDRLNALCEGLTVATLPPFAKVAPRQMVATVKIIPFALPETVIAQAEALLAGAPALEVALFRPMRLALIQTHLPETAGKMLDKTASVTAGRMAALGGGLTVDRRCPHDTRALAACLSAVSAEKDVDLIAVAGASAIVDRGDVIPAAITRAGGRVDHLGMPVDPGNLILLGELAGRVVLGLPGCARSPAINGFDWVLDRLCAGLAVGGADLMAMGVGGLLKDTTARTQPRMAAVTHPSPAAPPRLGALVLAAGLSRRMGGVNKLLLDWRGKPLVAHAVDTVLAAGPAAVAVVIGHQGKAVRAALEGRAIALVENPDPGRGLGSSLKRGLAALPADLDGVIVCLGDMPGLTPRLLSRLIAAFAPLEGRAICLPTFGGRRGNPVLFAARFLPEMMEITGDIGARPVIAAHPDQTCEVAMDALAEGASVLMDVDTPEAAKALLSAGGLEHHHHHH
MGSDKIHHHHHHMEMFAQFSVEGQRMYGMLHTPDGSATGQQAPPQGWPSVVIVHGFTGDKVSSHRLLVLLARRLTAAGIAALRFDCRGSGESQGDFSEMTVGREVQDVEAAFDYVRHQPGLDPERVMLLGYSMGGLVSALAAEKVRPHRFALWSPALPELWLRHLRGGLLPPVISDYGGWPLGRAFLQEVVQTRPLEAAARWGGVAHVFHGDRDQTCPVEWGVRTPKPCAATPPRFPARGTRMTRSNR
MEPVRIGGPVGAGKTMLVEKLTRAMHRRFSIAVITNDIYTKEDAQFLIKHSVLPEDRIIGVETGGCPHTAIREDASMNFAAIDELKRRHPDVELILIESGGDNLAATFSPELVDFSIYVIDVAQGEKIPRKGGQGMIKSDLLVINKIDLAPYVGASLEVMERDAKAVRGAKPVIFTNLKEEIGLFDVVDWIEKQVLLAGLEE
MAHHHHHHMSLPPRGPSSPPAKCPQECVASSCVSLPITPPCIARRVLPLFPPPGWHMYDAYRNCFQYRPDVQRKLVKAVQRERHLRHLAAPHAGDAATSSAEVSAAVLRKEVMEMDSTCCCCALDAAHLFATPEDMPTPPLPLSRCELHEVLLALSPRWQSYPWRLCFDTASDGFSLSSLYRCMEAVDAKQSQVKTVAFGLFFVHSREDAALTNAQTASPVDSLSASSTSPSYALWPPTAGAPHSFCEAHHSSSRRYGAAHGALQHSVLGCFTPEVPCLGRHAANIYFGSTDTFVFRLDQLSCAPSRGAWMATDVEKKQSSQRAQQQEQQQQHGKAAEPHTCAPATSTRAVGAAPAYGYAKLALADDDIAGVPVPMPSRVTIEHAGDSKHAVDKSMVHSSPLLPPSEVPPLLNPSPLRAAVVSSSNAAAMSSVHGAPDIVVPSPRGRWHRLLRPVQPARVVPHAPLLEKFTWCGNMHNRKFIVCNPHFFAIGGGQSGAALYVDEALQYGTSSTWCETFNAPCLFGPRMGSADVSSVPSLVQSYMSGNDSPSGGPARPTSGLPHVEFAISRVVWFSVTEDKRTLRMMSAADASLPSAEAHRCGCGRFSCASASHTTTLDPMSTEKSTAPSPPPASTFLHQCDLLPFAAPM
MEVDPGGGKKPMIVKKMVAFSKREEERILLEIDLYKKLENNEFVIDLMAHIVDDITHYLLFDKYSQNFLEYIEELKIGGEVDELKHLKYFSGIVSAIEQLHGFEFAHLDIKPANILKSGDTIKMIDFGSATKMPIEIKTSADHHRHKEDAEELCSMMYRAPELFNCEIGSTLTTAVDVWALGVCLYEFLYLENPFNKIYEQGGSIALATQSPHMIKWNENRHISEKSINLIKSILIVDPNQRPTIGELRAKVDNLLANFDTPEEAENPEITDEEFDLGMRETT
MSLTSVVFLNPGNSTETFWVSYSQFMQAAARDLGLDLRILYAERDPQNTLQQARELFQGRDKPDYLMLVNEQYVAPQILRLSQGSGIKLFIVNSPLTLDQRELIGQSRQNYSDWIGSMVGDDEEAGYRMLKELLHKLGPVPAGHGIELLAFSGLKVTPAAQLRERGLRRALAEHPQVHLRQLVYGEWNRERAYRQAQQLLKRYPKTQLVWSANDEMALGAMQAARELGRKPGTDLLFSGVNSSPEALQALIDGKLSVLEAGHFTLGGWALVALHDDALGLDARRLGGPDWQLSLFQEGHHHHHH
MGSDKIHHHHHHMFVDTTLRDGHQSLIATRMRTEDMLPALEAFDRMNFHSMEVWGGATFDVAVRFLNENPWERLKKIREGLKNTKIQMLLRGQNLVGYRHYADDVVELFIKKVAEYGLDIIRIFDALNDERNLQKSIEESKKHGLHVQVAISYTVSPVHTLDYYLDFARKLLDMGVDSICIKDMAGLLTPKRAYELVRALKEKFGVPVEVHSHCTTGFAPLAYQAAYEAGADFFDTAISPFSMGTSQPTFETMYYAFRGNGKEDFDREALKFLVDHFTKVRMKYIEYDVGMKYPDSRIIFSQIPGGMYSNLLKQLKEQRMEHLLDKVLEEVPRVQKDLGYPPLVTPTSQIVGVQAFLNVVYGRYERITNETRNYVKGLYGRPPAPIDPELMRKILGDEKPIDCRPADLLEPELDKTRKELGILVETDEDLLIAVILGEVGKKFLRKKYEEKIGVDFNYLESLSDFTDDMPVYPV
MSSVAPSVRLFFALWPQEAVRKQLARLARRIADQCAGRCVRPENLHLTLAFIGEVDSSVVPILRQAGSAIHRTSFDLLLDKLHCWGKGSIIAAGVSQPCGELTVLVQDLRNQLSAAGVRYDTVKFVPHVTLVRNAKREPEQKHFPETIPPVAWAADRWSLVQSRPTPYGSAYQSFADWALASQDFDEHHRA
MGSDKIHHHHHHMDMTTYPIYLVGGSKGGVGKSFVALALADYLLRQNIRAALVETDTSNPDVMKAVQDEMRCIAYNLDDADGWIGLVNFCDEQRDAAIVVNTAARSQTGVEQFGATLAGALGELQRRLVVLWVINRQRDSLELLHAFSKTFPDAVTNVVRNGYFGPAEKFTLYQGSQLRRSIEARGHSLDFPDLADRVADELRSQRMSIRKAAETMHIGERVELMRWRSLCDAMFARVTVDG

Soluble on expression in E. coli, soluble:
SNANFNRFTQRAKKAIDLAFESAKSLGHNIVGSEHILLGLLREEEGIAAKVLSKVGFTEAYLEGKIVDMEGKGEEISEDIVLSPRSKQILELSGMFANKLKTNYIGTEHILLAIIQEGEGIANKILNYAGVNDRTLAQLTIDMMG
MSLSQNASVGIVMPQKIPFEMPLVLENGKTLPRFDLMIETYGELNAEKNNAVLICHALSGNHHVAGRHSAEDKYTGWWDNMVGPGKPIDTERFFVVGLNNLGGCDGSSGPLSINPETGREYGADFPVVTVKDWVKSQAALADYLGIEQWAAIVGGSLGGMQALQWTISYPERVRHALVIASAPKLSTQNIAFNDVARQAILTDPDFNEGHYRSHNTVPARGLRIARMMGHITYLAEDGLGKKFGRDLRSNGYQYGFGVEFEVESYLRYQGDKFVGRFDANTYLLMTKALDYFDPAADFGDSLTRALQNVKAKFFVASFSTDWRFAPERSHELVKALIAAQKSVQYIEVKSAHGHDAFLMEDEAYMRAVAAYMNNVYKECQQEGHHHHHH
GSPHMLSGSGLCNSSSALPLYNQQVGDCCIIRVSLDVDNGNMYKSILVTSQDKAPAVIRKAMDKHNLEEEEPEDYELLQILSDDRKLKIPENANVFYAMNSTANYDFVLKKRTFT
MYQVIRMYGAMEPWWFLDDWKEDITKVLEFDNYHEALQCYQKEWAKLRRRYSDFNSHGDIMTAFWNKQDQHWCEECGDYVQRYHSLALLTDWQETPSSWFRPTFTKQLEHHHHHH
MKKEHQKTLTFEIITPVVMAGTYKDEPELRIPSIKGMLRWWFRFFYASHNQSIDKLREHENEIFGSTEKACQFYMHLKYSQKLTDAYLAMNKRYGRYNNIKRKALEKNDTFRIDFIYSPFFTYKKELNTTLQLLSFLGGIGARWRRGFGSIQLKNGEDYKSFDKLKEKIEKVLKGKGEYHHDGFININNVDIYLVKPKRDNFWIDSLGAMNNLRKKVYKEFKSETNIKAIACKPKGGSRAVSPLIIQIKKFSEGKFYGILIVYNEWDKYEEFKNFINNNSELSFEQLLKSKPRKI
MNKLDTSQLKIASMGGGHGLFQTLRAVRQLNPASIDAIVTVADDGGSSGRIRRELGQIPPGDLRMALAALAPFDDEGLQWETLLQHRFGGHGALAGHAVGNLIIAGLCDTLGSEIAALDAVAKVIKAEGRVLPACAEPLEIAAEVSGLDDDPRIMREVIGQVAVASTPGTVRRVRLIPERPEATEESVEAIENADLVTLGPGSWFSSVIPHVLVPGIPTALATTKALRVVVLNLSPEPGETAGFTAERHIHILSQHAQTLRADVILVDEGLIPHKGERVHLERAAAVLGAQISYHDLSETDPSGRRIHRHDPAKLAEALRLQLLEHHHHHH
MAAQIPESDQIKQFKEFLGTYNKLTETCFLDCVKDFTTREVKPEETTCSEHCLQKYLKMTQRISMRFQEYHIQQNEALAAKAGLLGQPR
MSLKTTEYVAEILNELHNSAAYISNEEADQLADHILSSHQIFTAGAGRSGLMAKSFAMRLMHMGFNAHIVGEILTPPLAEGDLVIIGSGSGETKSLIHTAAKAKSLHGIVAALTINPESSIGKQADLIIRMPGSPKDQSNGSYKTIQPMGSLFEQTLLLFYDAVILKLMEKKGLDSETMFTHHANLEEGGSHHHHHH
MSLVRTALTIAGSDSGGGAGIEADLKTFTAFGVHGLVAITSVTAQNTQTVTAIHDIPPEVVSEQIRVVAEDIGVDAAKTGMLSNAEIIKAVAKTVKNYDFPLVVDPVMIAKSGAPLLREDAVDALIKYILPLATLVTPNRFEAEKLTGMEIRNVNDAKLAAKKIAEETGAKAVIVKGGHLEGKEAIDVLYHNGAYKLYRAPKVDGCTHGTGCSFSAAITANLAKGLSLEDAVSVAKEFITLGISTGHKIGHGHCPVNQSAWIEIPAEKWRIYEELTRAVREFERINPIKLIPEVGTNFVYALPFPYARTKEDVAGVKGRIVRVGNEVRAVGSVEFGASDHLARAILTFMRFYPKYRSAINVRYSEEIVELAKEQGFTVSFYDRREEPIEVKEKEGATIPWGIEVAVKRINKRPDVIYHLGDIGKEPMILIFGRNPREVLDKLRLLEGHHHHHH
MAHHHHHHMQVPPLTELSPSISVHLLLGNPSGATPTKLTPDNYLMVKNQYALSYNNSKGTANWVAWQLNSSWLGNAERQDNFRPDKTLPAGWVRVTPSMYSGSGYARGHIAPSADRTKTTEDNAATFLMTNMMPQTPDNNRNTWGNLEDYCRELVSQGKELYIVAGPNGSLGKPLKGKVTVPKSTWKIVVVLDSPGSGLEGITANTRVIAVNIPNDPELNNDWRAYKVSVDELESLTGYDFLSNVSPNIQTSIESKVDN
WCYEIQTEDPRSSCLGPEKWPGACKENQQSPINIVTARTKVNPRLTPFILVGYDQKQQWPIKNNQHTVEMTLGGGACIIGGDLPARYEAVQLHLHWSNGNDNGSEHSIDGRHFAMEMHIVHKKLTSSKEDSKDKFAVLAFMIEVGDKVNKGFQPLVEALPSISKPHSTSTVRESSLQDMLPPSTKMYTYFRYNGSLTTPNCDETVIWTVYKQPIKIHKNQFLEFSKNLYYDEDQKLNMKDNVRPLQPLGKRQVFKSHA
